This test deals with phosphoubiquitin (UniProt P0CG48 1-76, phosphorylated by PINK1 (Ser65)). The test can be described thus: ITC.

B1: ΔUBL-Parkin (80-465) (domain or fragment)
chain: MNATGGDDPRNAAGGCEREPQSLTRVDLSSSVLPGDSVGLAVILHTDSRKDSPPAGSPAGRSIYNSFYVYCKGPCQRVQPGKLRVQCSTCRQATLTLTQGPSCWDDVLIPNRMSGECQSPHCPGTSAEFFFKCGAHPTSDKETSVALHLIATNSRNITCITCTDVRSPVLVFQCNSRHVICLDCFHLYCVTRLNDRQFVHDPQLGYSLPCVAGCPNSLIKELHHFRILGEEQYNRYQQYGAEECVLQMGGVLCPRPGCGAGLLPEPDQRKVTCEGGNGLGCGFAFCRECKEAYHEGECSAVFEASGTTTQAYRVDERAAEQARWEAASKETIKKTTKPCPRCHVPVEKNGGCMHMKCPQPQCRLEWCWNCGCEWNRVCMGDHWFDV
Regarding B1, the binding result was “binds”.

Source of the values: article PMC5420311 (Nature structural & molecular biology, 2017).
